These results are taken from publication doi:10.1101/2021.04.08.438944.

For assay [1], the target named is DNAJB14-ΔDUF tagged with FLAG (human). Put plainly: co-IP.
For assay [2] the target is unchanged. Put plainly: co-IP. This is another data set of the same source.

Chain of DNAJB14-ΔDUF tagged with FLAG (human) (Q8TBM8 whole entry, stated change not applied): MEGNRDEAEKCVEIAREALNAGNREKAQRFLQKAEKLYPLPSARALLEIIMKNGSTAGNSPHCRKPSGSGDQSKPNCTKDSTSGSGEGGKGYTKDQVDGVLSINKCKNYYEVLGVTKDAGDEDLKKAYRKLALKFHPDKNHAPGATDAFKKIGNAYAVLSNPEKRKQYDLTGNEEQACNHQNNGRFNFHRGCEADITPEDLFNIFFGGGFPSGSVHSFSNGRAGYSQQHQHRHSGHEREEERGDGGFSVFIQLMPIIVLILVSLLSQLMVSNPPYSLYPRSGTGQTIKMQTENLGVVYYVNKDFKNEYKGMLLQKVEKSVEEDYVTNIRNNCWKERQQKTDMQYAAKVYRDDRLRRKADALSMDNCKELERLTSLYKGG

In assay [1], “HSP70 (from UniProt P0DMV8 1-641) (natural protein)” came in with an interaction left relative to DNAJB14-FL (co-IP densitometry) of 50%.

B1: DNAJB12-FL tagged with mOrange (natural protein)
chain: MESNKDEAERCISIALKAIQSNQPDRALRFLEKAQRLYPTPRVRALIESLNQKPQTAGDQPPPTDTTHATHRKAGGTDAPSANGEAGGESTKGYTAEQVAAVKRVKQCKDYYEILGVSRGASDEDLKKAYRRLALKFHPDKNHAPGATEAFKAIGTAYAVLSNPEKRKQYDQFGDDKSQAARHGHGHGDFHRGFEADISPEDLFNMFFGGGFPSSNVHVYSNGRMRYTYQQRQDRRDNQGDGGLGVFVQLMPILILILVSALSQLMVSSPPYSLSPRPSVGHIHRRVTDHLGVVYYVGDTFSEEYTGSSLKTVERNVEDDYIANLRNNCWKEKQQKEGLLYRARYFGDTDMYHRAQKMGTPSCSRLSEVQASLHG
In the case of B1, the fold lower than DNAJB14-FL (co-IP densitometry) in assay [2] is 3 fold lower.
